Molecular target: recombinant human ICAM-5 Fc Chimera (human) (UniProt Q9UMF0)
Assay: pull-down; ICAM-5 Fc chimera covalently attached to magnetic Dynabeads; incubated with the 1.11 (membrane-associated) or 1.20 g/cm^3 (naked) viral density fraction for 1 h at 33°C, then overnight at 4°C; beads rinsed 2x for 10 min in PBS; bound virus read as viral titer (TCID50) after PBS plus 0.1% NP-40; control: nonspecific antibody-coated beads

Sequence of UniProt Q9UMF0 (Q9UMF0 32-835, stated change not applied): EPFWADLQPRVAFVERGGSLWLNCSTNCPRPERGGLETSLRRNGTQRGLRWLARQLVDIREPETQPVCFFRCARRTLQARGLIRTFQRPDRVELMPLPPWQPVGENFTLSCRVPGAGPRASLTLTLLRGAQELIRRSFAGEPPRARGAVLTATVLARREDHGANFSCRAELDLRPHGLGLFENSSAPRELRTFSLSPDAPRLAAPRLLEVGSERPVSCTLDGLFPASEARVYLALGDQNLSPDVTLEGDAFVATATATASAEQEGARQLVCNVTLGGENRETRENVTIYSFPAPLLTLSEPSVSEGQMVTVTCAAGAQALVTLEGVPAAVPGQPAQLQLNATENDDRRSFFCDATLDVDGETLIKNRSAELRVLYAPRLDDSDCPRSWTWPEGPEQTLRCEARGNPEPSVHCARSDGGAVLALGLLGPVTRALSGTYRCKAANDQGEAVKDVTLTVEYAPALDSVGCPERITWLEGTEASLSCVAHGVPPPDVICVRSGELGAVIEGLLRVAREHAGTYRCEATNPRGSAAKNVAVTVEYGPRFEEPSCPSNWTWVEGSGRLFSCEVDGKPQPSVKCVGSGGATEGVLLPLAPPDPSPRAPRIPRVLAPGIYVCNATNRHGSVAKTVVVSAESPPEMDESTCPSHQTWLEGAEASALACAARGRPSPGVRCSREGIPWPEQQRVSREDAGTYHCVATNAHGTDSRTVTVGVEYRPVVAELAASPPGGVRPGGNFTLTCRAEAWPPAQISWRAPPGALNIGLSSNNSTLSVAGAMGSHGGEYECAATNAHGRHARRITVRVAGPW

Substance: Enterovirus D68 (EV-D68) viral particles, strain US/MO/14-18947 (complex)
- fold viral titer immunoprecipitated over control beads: 1000 fold
